According to US20100104550A1 (priority 2006, published 2010):
“Also recorded” adds a separate entry of the source.

Columns and labels:
MDA231luc cells [1] = type: cell-based, human
F98/EGFR-Dox cells = type: cell-based, rat
EGFR = EGFR (Homo sapiens, UniProt P00533); type: cell-based, rat
α-fodrin = type: cell-based, human
GRP78/BiP = GRP78/BiP (Homo sapiens, UniProt P11021); type: cell-based
MDA231luc cells [2] = type: cell-based, human; remark: listed apart in the source
caspase-3/7 = type: cell-based, human
MDA231luc-Dox cells = type: cell-based, human

Chain of GRP78/BiP (P11021 19-654): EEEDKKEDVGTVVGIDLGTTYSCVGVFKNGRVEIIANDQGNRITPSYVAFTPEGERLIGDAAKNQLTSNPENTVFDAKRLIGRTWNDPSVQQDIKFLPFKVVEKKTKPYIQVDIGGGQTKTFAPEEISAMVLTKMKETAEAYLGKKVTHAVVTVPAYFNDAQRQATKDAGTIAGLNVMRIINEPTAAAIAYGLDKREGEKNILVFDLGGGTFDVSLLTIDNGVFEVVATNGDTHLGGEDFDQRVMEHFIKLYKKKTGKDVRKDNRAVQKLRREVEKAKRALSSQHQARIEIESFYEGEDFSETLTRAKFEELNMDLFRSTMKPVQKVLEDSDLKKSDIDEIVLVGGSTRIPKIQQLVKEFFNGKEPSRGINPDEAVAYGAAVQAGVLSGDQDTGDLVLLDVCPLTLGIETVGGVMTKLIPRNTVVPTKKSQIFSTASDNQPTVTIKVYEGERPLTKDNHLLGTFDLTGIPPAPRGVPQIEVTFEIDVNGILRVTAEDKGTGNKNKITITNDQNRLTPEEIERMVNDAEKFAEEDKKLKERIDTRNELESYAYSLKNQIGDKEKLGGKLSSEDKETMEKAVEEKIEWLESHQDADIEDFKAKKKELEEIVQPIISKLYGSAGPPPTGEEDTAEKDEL

B1: EGF-SubA: fusion protein (SEQ ID NO:13): Cys-tag, linker, human EGF, linker, 326 amino acid SubA fragment (protein)
chain: MKESCAKKFQRQHMDSGGGGSGGGGSGGGGSMGNSDSECPLSHDGYCLHDGVCMYIEALDKYACNCVVGYIGERCQYRDLKWWELRSMADIGSEKPWYFDAIGLTETTMSLTDKNTPVVVSVVDSGVAFIGGLSDSEFAKFSFTQDGSPFPVKKSEALYIHGTAMASLIASRYGIYGVYPHALISSRRVIPDGVQDSWIRAIESIMSNVFLAPGEEKIINISGGQKGVASASVWTELLSRMGRNNDRLIVAAVGNDGADIRKLSAQQRIWPAAYHPVSSVNKKQDPVIRVAALAQYRKGETPVLHGGGITGSRFGNNWVDIAAPGQNITFLRPDAKTGTGSGTSEATAIVSGVLAAMTSCNPRATATELKRTLLESADKYPSLVDKVTEGRVLNAEKAISMFCKKNYIPVRQGRMSEEL
modifications: fusion protein of subA and human EGF with cys tag consisting of SEQ ID NOS 7 to 12
With B1 the “effect of excess EGF on EGF-SubA toxicity” value (MDA231luc cells [1]) was “inhibited by excess of EGF; also recorded: excess of free EGF rescue cells”, the “fold lower sensitivity of MDA-231luc cells vs F98/EGFR cells” value (MDA231luc cells [1]) was 10 fold and the “sensitivity of F98/EGFR-Dox cells relative to parental F98/EGFR” value (F98/EGFR-Dox cells) was “Enhanced sensitivity; also recorded: significantly more sensitive”. The EGFR tyrosine autophosphorylation (EGFR) was “induced EGFR tyrosine autophosphorylation in the same concentration range”, the “accumulation of 150-kDa and 120-kDa fragments of α-fodrin” value (α-fodrin) was “Greater accumulation” and the “cleavage of BiP in combination treatment” value (GRP78/BiP) was “effective cleavage of BiP”. For the same molecule, the “cleavage of intracellular GRP78/BiP” value (GRP78/BiP) was “appearance of a 28-kDa fragment; also recorded: selectively cleaves intracellular BiP”, the “effect on bortezomib-induced cell growth inhibition” value (MDA231luc cells [2]) was “enhances cell growth inhibition” and the “effect on thapsigargin-induced cell growth inhibition” value (MDA231luc cells [2]) was “enhances cell growth inhibition”. The “total DEVD- and specific caspase-3/7 activity” value (caspase-3/7) was “significant increase”, the IC50 (parental F98 cells) was about 2.5 nM and the “sensitivity of MDA231luc-Dox cells relative to parental MDA231luc” value (MDA231luc-Dox cells) was “Enhanced sensitivity; also recorded: significantly more sensitive”.
